Assay [1] concerns the target T1, human FGFR2 IIIb variant protein (isoform 2: NP_075259), expressed on transfected cells (human, UniProt P21802 22-821).
T1 construct: also called pcDNA-DEST40-FGFR2 IIIb
T1 chain: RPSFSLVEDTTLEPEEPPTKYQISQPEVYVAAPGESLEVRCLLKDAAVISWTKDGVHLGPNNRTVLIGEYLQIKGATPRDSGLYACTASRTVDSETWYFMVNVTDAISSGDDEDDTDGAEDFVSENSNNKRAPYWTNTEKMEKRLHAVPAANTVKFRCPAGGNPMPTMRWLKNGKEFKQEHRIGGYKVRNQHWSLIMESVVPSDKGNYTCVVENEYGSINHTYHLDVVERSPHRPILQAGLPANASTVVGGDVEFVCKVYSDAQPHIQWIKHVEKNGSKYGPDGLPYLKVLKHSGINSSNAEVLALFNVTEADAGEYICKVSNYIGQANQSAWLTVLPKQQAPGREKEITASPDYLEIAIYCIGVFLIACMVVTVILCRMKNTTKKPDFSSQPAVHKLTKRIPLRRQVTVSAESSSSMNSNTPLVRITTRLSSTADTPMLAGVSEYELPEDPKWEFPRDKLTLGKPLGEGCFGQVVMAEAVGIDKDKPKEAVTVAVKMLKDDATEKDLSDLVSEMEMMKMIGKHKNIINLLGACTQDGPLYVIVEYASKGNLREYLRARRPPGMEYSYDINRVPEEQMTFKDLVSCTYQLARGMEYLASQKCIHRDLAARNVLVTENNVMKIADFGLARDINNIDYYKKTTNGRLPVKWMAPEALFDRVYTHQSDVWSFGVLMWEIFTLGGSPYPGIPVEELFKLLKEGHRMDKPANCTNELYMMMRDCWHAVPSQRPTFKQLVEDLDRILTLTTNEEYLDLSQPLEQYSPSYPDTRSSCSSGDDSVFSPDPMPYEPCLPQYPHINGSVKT
Briefly: flow cytometry, hybridoma supernatant on transfected HEK293T cells. As for the experimental part:
(§1) The cell suspension was centrifuged to remove the supernatant. […] The cells were washed twice with PBS containing 5% FBS, then suspended by the addition of Anti-Rat IgG FITC conjugate (manufactured by Sigma-Aldrich Corp.) diluted 320-fold with PBS containing 5% FBS, and left standing at 4° C. for 1 hour. The cells were washed 3 times with PBS containing 5% FBS and then resuspended in PBS containing 5% FBS and 2 μg/ml 7-aminoactinomycin D (manufactured by Molecular Probes, Inc.), followed by detection using a flow cytometer (FC500; manufactured by Beckman Coulter Inc.). The data was analyzed using Flowjo (manufactured by Tree Star Inc.). After removal of 7-aminoactinomycin D-positive dead cells by gating, the FITC fluorescence intensity of live cells was plotted to a histogram to calculate average fluorescence intensity (MFI).

Assay [2] deals with T1, human FGFR2 IIIb variant protein …. Briefly: Cell-ELISA on transfected 293 alpha cells, antibody 2 ug/ml. Here is the method: (§2) The resulting cells were dispensed in an amount of 100 μl/well to a 96-well plate (manufactured by Corning Inc.) and cultured overnight at 37° C. under 5% CO₂ conditions in a DMEM medium containing 10% FBS. The obtained transfected cells were used in the attached state in Cell-ELISA. […] The cells in the wells were washed once with PBS containing 5% FBS. Then, Anti-Human IgG-Peroxidase antibody produced in goat (manufactured by Sigma-Aldrich Corp.) diluted 500-fold with PBS containing 5% FBS was added thereto, and the plate was left standing at 4° C. for 1 hour. The cells in the wells were washed 5 times with PBS containing 5% FBS. Then, an OPD chromogenic solution (OPD solution (o-phenylenediamine dihydrochloride (manufactured by Wako Pure Chemicals Industries, Ltd.) and H₂O₂ dissolved at concentrations of 0.4 mg/ml and 0.6% (v/v), respectively, in 0.05 M trisodium citrate and 0.1 M disodium hydrogen phosphate dodecahydrate, pH 4.5)) was added thereto at a concentration of 100 μl/well. Color reaction was performed with occasional stirring and stopped by the addition of 1 M HCl at a concentration of 100 μl/well. Then, the absorbance was measured at 490 nm using a plate reader (ARVO; PerkinElmer, Inc.).

The target of assay [3] is T2, human FGFR2 IIIc variant protein (isoform 1: NP_000132), expressed on transfected cells (human, UniProt P21802 22-821).
T2 construct: also called pcDNA-DEST40-FGFR2 IIIc
Kind of assay: flow cytometry, hybridoma supernatant on transfected HEK293T cells. As for the experimental part:
as §1

The target of assay [4] is T2, human FGFR2 IIIc variant protein …. Briefly: Cell-ELISA on transfected 293 alpha cells, antibody 2 ug/ml. Here is the method:
as §2

For assay [5] the target is unchanged. Briefly: flow cytometry on transfected HEK293T cells. As for the experimental part: as §1

B1: rat anti-human FGFR2 monoclonal antibody FR2-10 (antibody, V domains shown)
VH: EVQLVESGGGLVQPGRSLKLSCVASGFRFNDFWMTWIRQAPGKGLEWVASITYTGDNTYYAGSVKGRITISRDNAKSTLYLQMNSLRSEDTATYYCTRDDYGGYSPYYMDAWGQGTSVTVSS
VL: DIQMTQSPSSLSAFLGDRVTITCRASQDIGNYLRWFQQKPGKSPRLMIYGATNLANGVPSRFSGSRSGSDYSLTINNLESEDMAIYYCLKHNEYPFTFGSGTKLEIKR
notes: Used as hybridoma culture supernatant or purified from mouse ascites; also called rat FR2-10 antibody
With B1, the binding result in assay [1] is “binds”.

B2: human chimeric anti-FGFR2 antibody cFR2-10 (antibody, human IgG1, V domains shown)
VH: EVQLVESGGGLVQPGRSLKLSCVASGFRFNDFWMTWIRQAPGKGLEWVASITYTGDNTYYAGSVKGRITISRDNAKSTLYLQMNSLRSEDTATYYCTRDDYGGYSPYYMDAWGQGTSVTVSS
VL: DIQMTQSPSSLSAFLGDRVTITCRASQDIGNYLRWFQQKPGKSPRLMIYGATNLANGVPSRFSGSRSGSDYSLTINNLESEDMAIYYCLKHNEYPFTFGSGTKLEIKR
notes: Rat FR2-10 variable regions on human IgG1 / kappa constant regions; also called human chimeric FR2-10
In the case of B2, in assay [2], the binding result is given as “binds”.

B3: rat anti-human FGFR2 monoclonal antibody FR2-13 (antibody, V domains shown)
VH: QVKLLQSGAELVKPGASVKLSCKTSGFTFSTSYMSWLKQVPGPSIEWIGWIYAGDGGTKYNQKFKGKATLTVDKSSSTAYMDLSSLTSEDAAVYFCATDGYGDWFAYWGQGTLVTVSS
VL: DIQMTQSPASLSASLGETVTIECRASEDIYSNLAWYQQKPGNSPQLLIYDANILADGVPSRFSGSGSGTQYSLKINSLQSEDVASYFCQQYNNYPPFTFGVGTKLELKR
notes: Used as hybridoma culture supernatant or purified from mouse ascites; also called rat FR2-13 antibody
Turning to B3, the binding result in assay [1] and in assay [3] was “binds” in each case.

B4: human chimeric anti-FGFR2 antibody cFR2-13 (antibody, human IgG1, V domains shown)
VH: QVKLLQSGAELVKPGASVKLSCKTSGFTFSTSYMSWLKQVPGPSIEWIGWIYAGDGGTKYNQKFKGKATLTVDKSSSTAYMDLSSLTSEDAAVYFCATDGYGDWFAYWGQGTLVTVSS
VL: DIQMTQSPASLSASLGETVTIECRASEDIYSNLAWYQQKPGNSPQLLIYDANILADGVPSRFSGSGSGTQYSLKINSLQSEDVASYFCQQYNNYPPFTFGVGTKLELKR
notes: Rat FR2-13 variable regions on human IgG1 / kappa constant regions; also called human chimeric FR2-13
As for B4, the binding result in assay [2] and in assay [4] was “binds” throughout.

B5: rat anti-human FGFR2 monoclonal antibody FR2-14 (antibody, V domains shown)
VH: QVKLLQSGAELVKPGASVKLSCKTSGFTFSTSYMSWLKQVPGPSTEWIGWIYAGDGGTKYNQKFKGKATLTVDKFSSTAYMDLSSLTSEDAAVYFCATDGYGDWFTYWGQGTLVTVSS
VL: DIQMTQSPASLSASLGETVTIECRASEDIYSNLAWYQQKPGNSPQLLIYDANILADGVPSRFSGSGSGTQYSLKINSLQSEDVASYFCQQYNNYPPFTFGAGTKLELKR
notes: Used as hybridoma culture supernatant or purified from mouse ascites; also called rat FR2-14 antibody
Take B5: the binding result in assay [5] and in assay [1] was “binds” throughout.

B6: human chimeric anti-FGFR2 antibody cFR2-14 (antibody, human IgG1, V domains shown)
VH: QVKLLQSGAELVKPGASVKLSCKTSGFTFSTSYMSWLKQVPGPSTEWIGWIYAGDGGTKYNQKFKGKATLTVDKFSSTAYMDLSSLTSEDAAVYFCATDGYGDWFTYWGQGTLVTVSS
VL: DIQMTQSPASLSASLGETVTIECRASEDIYSNLAWYQQKPGNSPQLLIYDANILADGVPSRFSGSGSGTQYSLKINSLQSEDVASYFCQQYNNYPPFTFGAGTKLELKR
notes: Rat FR2-14 variable regions on human IgG1 / kappa constant regions; also called human chimeric FR2-14
Take B6: the binding result in assay [2] and in assay [4] was “binds” each time.

The record behind these values is patent US20160317656A1 (Daiichi Sankyo, published 2016).
